Reference: patent US8008547B2, “Glyphosate-N-acetyltransferase (GAT) genes” (E.I. duPont de Nemours, priority 2000, dated 2011)

Test: Standard protocol for determination of kcat and KM (continuous spectrophotometric assay, Acetyl CoA hydrolysis at 235 nm)
Type: biochemical
Conditions: purified protein, about 23° C., 0.2 mM acetyl CoA; for Kcat: 20 mM HEPES pH 6.8, 10% ethylene glycol; for Km: pH 6.8, glyphosate 0.125 to 10 mM
Procedure, shortened: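 KM from initial rates over 0.125–10 mM glyphosate, fitted by Lineweaver-Burke transformation of Michaelis-Menten; kcat/KM computed as kcat divided by KM. Continuous spectrophotometric read of acetyl-CoA hydrolysis at 235 nm.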

Row | Molecule | Kcat [s⁻¹] | Km [µM]
1 | SEQ ID NO: 429: GAT polypeptide (protein, 9_22B1, GAT polypeptide) MIEVKPINAEDTYEIRHRILRPNQPLEACKYETDLLGGTFHLGGYYRGKLVSIASFHQAEHPELEGQKQYQLRGMATLEGYREQKAGSTLIRHAEELLRKKGADLLWCNARTSASGYYKKLGFSEQGEVYDLPPTGPHILMYKKLT | 0.835 | 1400
2 | SEQ ID NO: 436: GAT polypeptide (protein, 9C6, GAT polypeptide) MIEVKPINAEDTYEIRHRILRPNQPLEACMYETDLLGGTFHLGGYYQGKLISIASFHNAEHSELEGQKQYQLRGMATLEGYREQKAGSTLIRHAEELLRKKGADLLWCNARTSVSGYYEKLGFSEQGEVYDIPPVGPHILMYKKLA | 0.217 | 2500
3 | SEQ ID NO: 432: GAT polypeptide (protein, 9_4H10, GAT polypeptide) MIEVKPINAEDTYEIRHRILRPNQPLEACKYETDLLGGTLHLGGYYRGKLISIASFHQAEHPELEGQKQYQLRGMATLEGYREQKAGSTLIRHAEELLRKKGADLIWCNARTSASGYYKKLGFSEQGEVYDIPPVGPHILMYKKLT | 1.688 | 1500
4 | SEQ ID NO: 433: GAT polypeptide (protein, 9_4H8, GAT polypeptide) MIEVKPINAEDTYEIRHRILRPNQPLEACMYETDLLGGTFHLGGYYRGKLISIASFNQAEHPELEGQKQYQLRGMATLEGYREQKAGSTLIRHAEELLRKKGADLLWCNARTSASGYYKKLGFSEQGEVYDIPPVGPHILMYKKLT | 0.785 | 600
5 | SEQ ID NO: 431: GAT polypeptide (protein, 9_24F6, GAT polypeptide) MIEVKPINAEDTYEIRHRILRPNQPLEACKYETDLLRGAFHLGGYYRGKLISIASFHQAEHSELEGQKQYQLRGMATLEGYREQKAGSTLIRHAEALLRKKGADLLWCNARTSASGYYKKLGFSEQGEVYDIPPTGPHILMYKKLT | 0.875 | 900
6 | SEQ ID NO: 434: GAT polypeptide (protein, 9_8H1, GAT polypeptide) MIEVKPITAEDTYEIRHRILRPNQPLEACKYETDLLGGTFHLGGYYRGKLISIASFHQAEHPELEGQKQYQLRGMATLEGYREQKAGSTLIRHAEELLRKKGADLLWCNARTSASGYYKKLGFSEQGEVYDIPPTGPHILMYKKLT | 1.25 | 1700
7 | SEQ ID NO: 430: GAT polypeptide (protein, 9_23A10, GAT polypeptide) MIEVKPINAEDTYEIRHRILRPNQPLEACKYETDLLGGTLHLGGYYRGKLVSIASFHQAEHPELEGQKQYQLRGMATLEGYRGQKAGSTLIRHAEELLRKKGADLLWCNARTSASGYYKKLGFSEQGGVYDIPPVGPHILMYKKLT | 0.35 | 1000
8 | SEQ ID NO: 274: GAT polypeptide (protein, 10_1H3, GAT polypeptide) MIEVKPINAEDTYEIRHRILRPNQPLEACKYETDLLGGTFHLGGYYRGKLVSIASFHQAEHPELEGRKQYQLRGMATLEGYREQKAGSTLIRHAEELLRKKGADLLWCNARTSASGYYKKLGFSEQGEVYDIPPTGPHILMYKKLT | 1.27 | 1900
9 | SEQ ID NO: 435: GAT polypeptide (protein, 9_9H7, GAT polypeptide) MIEVKPINAEDAYEIRHRILRPNQPLEACKYETDLLGSTFHLGGYYRGKLISIASFHQAEHPELEGQKQYQLRGMATLEEYREQKAGSTLIRHAEELLRKKGADLLWCNARTSASGYYKKLGFSEQGEVYDIPPVGPHILMYKKLT | 0.467 | 700
